Assay results as given in publication PMC11358308, “Structure-based humanization of a therapeutic antibody for multiple myeloma” (Journal of Molecular Medicine (Berlin, Germany), 2024).
Substitutions are numbered along the chain they refer to. Names may count otherwise.

Columns and labels:
Settings in all cases: both partners purified
[1] = biological target: T1, human B-cell maturation antigen (BCMA), extracellular domain (Homo sapiens (Human)., UniProt Q02223); experiment: SPR; ProteOn XPR36; whole IgG (15 µg/ml) immobilised on GLH chip by amine chemistry; BCMA as mobile phase in PBS with 0.005% Tween-20 (0.4-90 nM hBCMA, 2.7 nM-1 µM cBCMA); Kd from kon and koff, single-site model
T1 construct: B-cell maturation antigen (BCMA), human; soluble form used as mobile phase in SPR and in the Fab:BCMA crystals; holds the DxL loop (L17) and H19; also called hBCMA; human BCMA
T1 sequence (Q02223 1-54): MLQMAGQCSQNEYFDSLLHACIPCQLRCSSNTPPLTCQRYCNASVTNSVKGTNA

[2] = biological target: T2, cynomolgus BCMA (Macaca fascicularis, UniProt A0A2K5UD97); experiment: as above
T2 construct: B-cell maturation antigen (BCMA), cynomolgus monkey (macaque); differs from human BCMA at three positions: alanine 20 is aspartic acid, isoleucine 22 is lysine, asparagine 31 of hBCMA is deleted; also called cynoBCMA; cBCMA

[3] = biological target: T1, human B-cell maturation antigen (BCMA), …; experiment: crystal structure; Fab:BCMA complexes; 21% PEG 3350, 0.1 M BisTris pH 6.5, 5 mM CuCl2, 20 °C; molecular replacement

B1: J22.9-H, humanized IgG (all humanizing substitutions in VH and VL except A46L in VL) (antibody, V domains shown)
VH: EVQLVESGGGLVQPGGSLRLSCAASGFTFSRYWMSWVRQAPGKGLVWVGEINPDSSTINYAPSLKDKFTISRDNAKNTLYLQMNSLRAEDTAVYYCASLYYDYGDAMDYWGQGTLVTVSS
VL: EIVMTQSPATLSVSPGERATLSCKASQSVDSNVAWYQQKPGQAPRALIYSASLRFSGIPARFSGSGSGTEFTLTISSLQSEDFAVYYCQQYNNYPLTFGAGTKLELK
notes: humanized VH (hVH, 16 changes against the mouse VH); human IgG1 heavy chain constant region, as told for J22.9-xi; Fab light chain in PDB 8QY9; whole IgG in SPR and FACS; source: expressed, purified
Kd [1]: 15 nM | binding result [2]: binds

B2: J22.9-ISY Fab fragment (Fab, V domains shown)
VH: B1 VH with M34I, D54S, M107Y
VL: B1 VL with D30E
notes: Fab heavy chain; as the light chain of m7 (light chain of J22.9-H with D30E); Crystallised in complex with BCMA
binding result [3]: binds

B3: J22.9-FSY, humanized and CDR-optimized IgG (antibody, V domains shown)
VH: B1 VH with M34F, D54S, M107Y
VL: B1 VL with D30E
notes: as the VH of m5 (J22.9-H); human IgG1 heavy chain constant region, as told for J22.9-xi; as the light chain of m5 (J22.9-H; no structure of this variant; source: expressed, purified)
binding result [1]: binds | binding result [2]: binds

B4: J22.9-ISY, humanized and CDR-optimized IgG (antibody, V domains shown)
VH: B1 VH with M34I, D54S, M107Y
VL: B1 VL with D30E
notes: as the VH of m5 (J22.9-H; human IgG1 heavy chain constant region, as told for J22.9-xi; source: expressed, purified)
binding result [1]: binds | binding result [2]: binds

B5: J22.9-xi, chimaeric mouse/human IgG (antibody, V domains shown)
VH: QVQLQQSGGGLVQPGGSLKLSCAASGIDFSRYWMSWVRRAPGKGLEWIGEINPDSSTINYAPSLKDKFIISRDNAKNTLYLQMSKVRSEDTALYYCASLYYDYGDAMDYWGQGTSVTVSS
VL: DIVMTQSQRFMTTSVGDRVSVTCKASQSVDSNVAWYQQKPRQSPKALIFSASLRFSGVPARFTGSGSGTDFTLTISNLQSEDLAEYFCQQYNNYPLTFGAGTKLELK
notes: mouse VH of J22.9 (mVH); mouse VL of J22.9 (mVL); Fab light chain in PDB 4ZFO; IgG1; whole IgG immobilised in SPR
Kd [1]: 0.28 nM | binding result [2]: binds
